Measured values from patent US20240116984A1, “MODIFIED PEPTIDES FOR THE INHIBITION OF ABNORMAL TAU ACCUMULATION” (University of Notre Dame du Lac, priority 2021, published 2024).

Target: tau-RD (P301L/V337M)-YFP, stably expressed in HEK293 biosensor cells (UniProt P10636)
Test: cell-based or functional assay

Chain of tau-RD (P301L/V337M)-YFP, stably expressed in HEK293 biosensor cells (P10636 561-689 P618L/V654M): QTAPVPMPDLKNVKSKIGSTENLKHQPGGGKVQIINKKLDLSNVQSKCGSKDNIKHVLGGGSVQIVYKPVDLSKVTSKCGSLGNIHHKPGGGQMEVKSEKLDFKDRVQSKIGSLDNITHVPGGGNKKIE

aggregate-containing HEK293 biosensor cells (punctate fluorescence after 48 h) on treatment with preformed heparin-induced tauP301L fibrils: 38%
Substance: Human tauP301L (0N4R), recombinant, N-terminal His tag (from UniProt P10636 2-758)
